Entries after “also recorded” stand apart in the source; their conditions may differ.
How the values were obtained:
chimeric M4R (RGLG-2) = target: T1, chimeric M4R (RGLG-2) (Homo sapiens, UniProt P08173); test: BRET assay of the invention, cells co-expressing chimeric M4R (RGLG-2) and FP-Gγ9; format: cell-based; details: increasing concentrations of ligand
T1 construct: ID; NOs; expressed in transfected cells
Method: The same cells as described for FIG. 10 A were used. […] The decrease of the signal below baseline in the PTX-treated condition confirms a constitutive activity that has been described for the M4R. […]
A typical experiment has the following sequence.
The assay of the present invention was compared with a state of the art calcium based assay. […] In calcium-based assay, a calcium flux is measured in cells co-expressing recombinant M4R and modified Gαq. In the assay in accordance with the present invention, BRET in measured in cells co-expressing a chimeric M4R according to RGLG-2 (construct and cell-line from FIG. 2C, Table 6) and FP-Gγ9 (as described in FIG. 10A). The data represent mean values and they are normalized to the maximal effect of the orthosteric agonist after the subtraction of the basal values.

[1] = system: receptors endogenously expressed in non-transfected HEK cells; test: cAMP accumulation in non-transfected HEK cells; format: cell-based, human; details: increasing concentrations of ligand
Text: These ligands are the following: NECA (empty inverted triangles), Corticotropin releasing factor (CRF) (empty diamonds), calcitonin (full circles), isoproterenol (full triangles), UTP (full inverted triangles) and carbachol (full squares). […]

chimeric GIPR = target: T2, chimeric GIPR (Homo sapiens, UniProt P48546); test: BRET assay, specificity of the response of the chimeric GIPR (stable cell line, FP-Gγ9); format: cell-based; details: increasing concentrations of ligand
T2 construct: ID; NOs; expressed in transfected cells
Method: 5 or 10 minutes after the addition of coelenterazine H to the cells, the read plate is placed in the FLIPR tetra and the measurement begins.
Finally, a three-addition protocol can also be run on the FLIPR tetra, containing three compound plates, of which the first one usually contains different candidate agents, the second one an agonist at its EC20 and the third one an agonist at its EC80, so that a screen for both positive and negative allosteric modulators can be run at the same time.
The camera is adjusted in such a way that the gain is set to a maximum of 28,000× and the shutters are opened 100%. The signal captured is regulated by adjusting the exposure time to 0.1 to 3 seconds ideally resulting of a signal between 30,000-60,000 RLU. The read interval (emission filter 1, emission filter 2) is adjusted to the minimal value that results from the addition of the two exposure times (=2×0.1 to 3 seconds) plus the time needed to move the filters from position 1 to position 2 (0.3 sec), resulting in a maximal read frequency of 0.5 seconds (2 Hz).
Data on FIG. 6 were obtained by applying a two-addition protocol as described above with respect to FIG. 4, with the main differences being the final concentration of coelenterazine H of 6 μM, the exposure time in both channels of 1.5 seconds and the read interval of 3.3 seconds, as well as the presence of 0.2% BSA in the HBSS++ buffer for diluting peptidic ligands. […] The effects of the ligands were read for another 180 reads. Area under curve of blue/yellow ratio from count 31 to the end of the measurement was taken for the analysis and plotted against ligand concentration for the construction of the graph in FIG. 6.

[2] = target: human GIPR-Renilla luciferase-Gαs long fusion protein (type RLG) (human); test: cell-based or functional assay
[3] = target: human GLP-1R-Renilla luciferase-Gαs long fusion protein (type RLG) (human); test: cell-based or functional assay
[4] = target: T3, GIPR-L-G (human GIP receptor) (Homo sapiens, UniProt P48546); test: BRET assay, HEK cells transiently co-transfected with GIPR-L-G and a Gγ construct; format: cell-based; details: cells coexpressing GIPR-L-G and the Gγ construct, exposed to GIP
T3 construct: ID; NOs; expressed in transfected cells; host or cells: HEK cells, transient

[5] = target: T4, GLP1R-L-G (human GLP-1 receptor) (Homo sapiens, UniProt P43220); test: BRET assay, HEK cells transiently co-transfected with GLP1R-L-G and a Gγ construct; format: cell-based; details: cells coexpressing GLP1R-L-G and the Gγ construct, exposed to GLP-1
T4 construct: ID; expressed in transfected cells; host or cells: HEK cells, transient

[6] = target: T5, hM1R fused to split Gαq harbouring a luminescent protein (type RGLG-3)
T5 chain: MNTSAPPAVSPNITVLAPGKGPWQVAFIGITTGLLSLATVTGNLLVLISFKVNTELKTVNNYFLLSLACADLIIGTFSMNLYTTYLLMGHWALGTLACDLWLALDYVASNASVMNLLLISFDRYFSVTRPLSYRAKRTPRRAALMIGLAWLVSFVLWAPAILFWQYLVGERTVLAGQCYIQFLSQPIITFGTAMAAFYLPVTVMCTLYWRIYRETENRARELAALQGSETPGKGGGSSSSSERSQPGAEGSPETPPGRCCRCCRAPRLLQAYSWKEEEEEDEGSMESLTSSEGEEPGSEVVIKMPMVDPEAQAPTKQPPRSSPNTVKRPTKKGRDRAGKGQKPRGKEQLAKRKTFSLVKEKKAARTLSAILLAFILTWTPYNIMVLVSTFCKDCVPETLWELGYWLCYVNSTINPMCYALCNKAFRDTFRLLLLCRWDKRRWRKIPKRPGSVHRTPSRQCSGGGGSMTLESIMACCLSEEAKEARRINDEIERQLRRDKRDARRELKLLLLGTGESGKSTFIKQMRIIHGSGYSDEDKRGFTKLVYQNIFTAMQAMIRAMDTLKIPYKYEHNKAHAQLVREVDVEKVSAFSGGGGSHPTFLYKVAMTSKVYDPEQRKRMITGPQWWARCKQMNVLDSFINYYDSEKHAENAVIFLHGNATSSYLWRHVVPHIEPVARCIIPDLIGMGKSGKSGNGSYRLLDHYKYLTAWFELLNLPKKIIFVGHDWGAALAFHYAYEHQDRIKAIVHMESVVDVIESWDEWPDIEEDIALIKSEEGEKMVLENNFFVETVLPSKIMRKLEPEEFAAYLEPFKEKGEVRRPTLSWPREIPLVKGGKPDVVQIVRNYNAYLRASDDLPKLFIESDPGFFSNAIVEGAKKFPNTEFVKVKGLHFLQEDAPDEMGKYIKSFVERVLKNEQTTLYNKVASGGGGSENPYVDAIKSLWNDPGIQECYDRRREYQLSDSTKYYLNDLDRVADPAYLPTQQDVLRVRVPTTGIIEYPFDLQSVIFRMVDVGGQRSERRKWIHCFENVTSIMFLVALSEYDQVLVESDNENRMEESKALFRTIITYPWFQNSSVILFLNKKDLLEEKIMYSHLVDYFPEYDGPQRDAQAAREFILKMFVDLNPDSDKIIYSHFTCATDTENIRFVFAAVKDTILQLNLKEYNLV

[7] = target: T6, hM4-R-Gαo^1-91-Luciferase-Gαo^92-354 fusion protein (type RGLG-2)
T6 chain: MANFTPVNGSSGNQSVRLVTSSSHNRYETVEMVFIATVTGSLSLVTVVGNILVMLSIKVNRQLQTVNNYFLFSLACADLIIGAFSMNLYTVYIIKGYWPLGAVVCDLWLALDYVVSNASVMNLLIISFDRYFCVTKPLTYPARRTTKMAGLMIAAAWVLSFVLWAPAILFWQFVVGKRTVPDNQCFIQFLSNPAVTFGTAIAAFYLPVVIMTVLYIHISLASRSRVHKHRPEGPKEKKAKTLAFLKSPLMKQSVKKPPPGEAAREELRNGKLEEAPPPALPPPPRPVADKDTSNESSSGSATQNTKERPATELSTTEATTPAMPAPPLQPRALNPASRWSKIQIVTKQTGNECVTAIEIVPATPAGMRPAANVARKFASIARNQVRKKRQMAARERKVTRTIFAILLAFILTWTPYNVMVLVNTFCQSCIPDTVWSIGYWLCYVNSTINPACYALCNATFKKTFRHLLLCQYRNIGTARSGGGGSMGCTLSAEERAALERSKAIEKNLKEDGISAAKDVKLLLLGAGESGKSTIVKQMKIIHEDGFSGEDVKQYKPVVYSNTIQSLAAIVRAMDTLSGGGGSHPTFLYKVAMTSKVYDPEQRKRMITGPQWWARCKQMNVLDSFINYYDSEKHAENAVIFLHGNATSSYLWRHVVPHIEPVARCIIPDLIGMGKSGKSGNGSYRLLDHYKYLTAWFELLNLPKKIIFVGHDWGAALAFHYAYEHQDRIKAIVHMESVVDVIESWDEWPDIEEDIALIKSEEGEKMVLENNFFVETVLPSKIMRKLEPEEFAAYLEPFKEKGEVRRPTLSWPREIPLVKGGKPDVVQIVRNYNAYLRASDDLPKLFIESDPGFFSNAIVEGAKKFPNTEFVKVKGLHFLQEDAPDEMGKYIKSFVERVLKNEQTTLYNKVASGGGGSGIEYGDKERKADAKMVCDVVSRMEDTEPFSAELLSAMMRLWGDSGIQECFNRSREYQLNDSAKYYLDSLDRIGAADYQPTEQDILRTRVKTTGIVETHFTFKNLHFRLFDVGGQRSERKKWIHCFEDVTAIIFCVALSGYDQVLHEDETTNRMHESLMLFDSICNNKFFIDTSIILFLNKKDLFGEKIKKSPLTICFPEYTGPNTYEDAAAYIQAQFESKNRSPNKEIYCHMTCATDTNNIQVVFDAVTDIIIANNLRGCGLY

[8] = target: hM4-R RGLG-2 fusion construct with the PTX-insensitive mutant (C351S) of Gαo

Sequence of human GIPR-Renilla luciferase-Gαs long fusion protein (type RLG) (human) (chain, as listed by the source limits assumed): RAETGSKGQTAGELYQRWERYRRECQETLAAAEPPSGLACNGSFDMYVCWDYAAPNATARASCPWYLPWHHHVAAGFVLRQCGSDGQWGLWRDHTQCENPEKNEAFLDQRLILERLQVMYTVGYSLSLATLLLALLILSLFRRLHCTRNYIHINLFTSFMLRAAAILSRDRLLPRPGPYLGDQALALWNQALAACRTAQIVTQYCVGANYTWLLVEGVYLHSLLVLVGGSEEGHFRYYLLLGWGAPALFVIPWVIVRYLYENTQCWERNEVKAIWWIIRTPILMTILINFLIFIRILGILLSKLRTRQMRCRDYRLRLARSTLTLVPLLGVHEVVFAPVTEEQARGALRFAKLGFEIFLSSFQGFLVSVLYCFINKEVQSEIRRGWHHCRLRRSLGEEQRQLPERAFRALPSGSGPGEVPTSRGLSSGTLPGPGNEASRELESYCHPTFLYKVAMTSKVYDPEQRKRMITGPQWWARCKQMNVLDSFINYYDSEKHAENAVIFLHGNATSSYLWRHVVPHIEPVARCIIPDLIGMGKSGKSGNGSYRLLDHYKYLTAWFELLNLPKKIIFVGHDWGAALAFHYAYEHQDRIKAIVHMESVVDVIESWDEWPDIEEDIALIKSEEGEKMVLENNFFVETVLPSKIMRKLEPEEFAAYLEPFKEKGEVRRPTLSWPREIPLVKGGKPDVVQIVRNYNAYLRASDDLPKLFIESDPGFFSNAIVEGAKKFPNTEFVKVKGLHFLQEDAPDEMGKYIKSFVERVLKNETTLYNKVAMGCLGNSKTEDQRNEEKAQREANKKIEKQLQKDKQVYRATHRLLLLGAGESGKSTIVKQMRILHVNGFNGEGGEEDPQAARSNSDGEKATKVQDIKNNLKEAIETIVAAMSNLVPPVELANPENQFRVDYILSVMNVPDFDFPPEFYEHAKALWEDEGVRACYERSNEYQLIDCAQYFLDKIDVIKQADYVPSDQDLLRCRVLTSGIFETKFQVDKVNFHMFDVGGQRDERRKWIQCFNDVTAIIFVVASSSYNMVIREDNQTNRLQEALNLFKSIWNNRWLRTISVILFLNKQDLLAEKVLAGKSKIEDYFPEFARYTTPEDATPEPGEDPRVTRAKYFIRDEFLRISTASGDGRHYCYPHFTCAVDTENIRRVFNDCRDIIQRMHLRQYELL
Sequence of human GLP-1R-Renilla luciferase-Gαs long fusion protein (type RLG) (human) (chain, as listed by the source limits assumed): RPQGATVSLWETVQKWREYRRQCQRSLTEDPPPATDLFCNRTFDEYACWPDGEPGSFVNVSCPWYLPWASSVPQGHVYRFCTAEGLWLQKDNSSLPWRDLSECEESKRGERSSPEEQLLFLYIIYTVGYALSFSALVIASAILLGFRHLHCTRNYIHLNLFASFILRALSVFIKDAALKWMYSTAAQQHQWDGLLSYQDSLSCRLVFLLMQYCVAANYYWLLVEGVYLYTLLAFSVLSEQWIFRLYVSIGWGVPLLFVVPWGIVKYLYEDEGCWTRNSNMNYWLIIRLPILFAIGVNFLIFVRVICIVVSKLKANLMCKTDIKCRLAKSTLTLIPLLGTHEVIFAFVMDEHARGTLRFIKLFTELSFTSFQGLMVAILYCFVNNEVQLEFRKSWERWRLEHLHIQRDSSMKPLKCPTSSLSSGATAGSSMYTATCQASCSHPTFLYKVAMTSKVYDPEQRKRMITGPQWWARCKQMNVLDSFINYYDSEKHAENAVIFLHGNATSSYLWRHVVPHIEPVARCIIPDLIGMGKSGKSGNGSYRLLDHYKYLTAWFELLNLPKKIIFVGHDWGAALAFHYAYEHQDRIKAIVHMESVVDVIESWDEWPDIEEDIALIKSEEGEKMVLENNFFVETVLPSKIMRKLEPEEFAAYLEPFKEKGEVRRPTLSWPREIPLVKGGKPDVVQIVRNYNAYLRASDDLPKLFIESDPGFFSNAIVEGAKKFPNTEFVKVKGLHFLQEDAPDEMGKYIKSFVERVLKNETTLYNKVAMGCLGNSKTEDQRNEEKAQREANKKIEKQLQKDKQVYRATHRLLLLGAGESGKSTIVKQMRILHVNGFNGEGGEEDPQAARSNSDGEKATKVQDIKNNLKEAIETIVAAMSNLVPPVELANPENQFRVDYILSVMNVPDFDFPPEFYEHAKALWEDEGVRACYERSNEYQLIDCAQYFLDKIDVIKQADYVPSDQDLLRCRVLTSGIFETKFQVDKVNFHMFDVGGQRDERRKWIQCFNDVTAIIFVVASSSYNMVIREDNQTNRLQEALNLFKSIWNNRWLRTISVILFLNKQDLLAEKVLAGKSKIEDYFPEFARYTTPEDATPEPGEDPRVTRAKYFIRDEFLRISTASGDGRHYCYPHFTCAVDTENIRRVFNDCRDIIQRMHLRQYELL

## CCNC(=O)[C@H]1O[C@@H](n2cnc3c(N)ncnc32)[C@H](O)[C@@H]1O [NECA, 5′-N-ethylcarboxamidoadenosine]
Chimeric M4R (RGLG-2)
  activation of the chimeric M4R (BRET): lack of activation
[1]
  activation of endogenously expressed receptors, cAMP accumulation: activated; also recorded: increase in cAMP
Chimeric GIPR
  activation of the chimeric GIPR (BRET): lack of activation

## O=c1ccn([C@@H]2O[C@H](COP(=O)(O)OP(=O)(O)OP(=O)(O)O)[C@@H](O)[C@H]2O)c(=O)[nH]1 [UTP, uridine-5′-triphosphate]
[1]
  activation of endogenously expressed receptors, cAMP accumulation: activated; also recorded: increase in cAMP
Chimeric GIPR
  activation of the chimeric GIPR (BRET): lack of activation

## C[N+](C)(C)CCOC(N)=O [carbachol]
Chimeric M4R (RGLG-2)
  activation of the chimeric M4R (BRET): activation
[1]
  activation of endogenously expressed receptors, cAMP accumulation: activated; also recorded: increase in cAMP
Chimeric GIPR
  activation of the chimeric GIPR (BRET): lack of activation

## CC(C)NCC(O)c1ccc(O)c(O)c1 (stereo not drawn) [isoproterenol]
Chimeric M4R (RGLG-2)
  activation of the chimeric M4R (BRET): lack of activation
[1]
  activation of endogenously expressed receptors, cAMP accumulation: activated; also recorded: increase in cAMP
Chimeric GIPR
  activation of the chimeric GIPR (BRET): lack of activation

## CRF: Corticotropin releasing factor, ligand of a receptor endogenously expressed in HEK cells
Chimeric M4R (RGLG-2)
  activation of the chimeric M4R (BRET): lack of activation
[1]
  activation of endogenously expressed receptors, cAMP accumulation: increase in cAMP
[1]; listed as Corticotropin releasing factor
  activation of endogenously expressed receptors, cAMP accumulation: activated
Chimeric GIPR
  activation of the chimeric GIPR (BRET): lack of activation

## GIP (from UniProt P09681 52-93) (peptide)
[2]
  EC50 (GIP), BRET receptor activation; cells co-expressing FP-Gγ9: 0.3 nM
  EC50 (GIP), BRET receptor activation; cells co-expressing FP-Gγ11: 0.4 nM
  EC50 (GIP), BRET receptor activation; cells co-expressing FP-Gγ13: 0.3 nM
  EC50 (GIP), BRET receptor activation; cells co-expressing Gγ5-FP: 5.5 nM
  EC50 (GIP), BRET receptor activation; cells co-expressing Gγ9-FP: 1.4 nM
  EC50 (GIP), BRET receptor activation; cells co-expressing Gγ10-FP: 8.9 nM
  EC50 (GIP), BRET receptor activation; cells co-expressing Gγ11-FP: 1.6 nM
  EC50 (GIP), BRET receptor activation; cells co-expressing Gγ13-FP: 0.6 nM

## GLP-1 (from UniProt P01275 21-180) (peptide)
[3]
  EC50 (GLP-1), BRET receptor activation; cells co-expressing FP-Gγ1: 1.1 nM
  EC50 (GLP-1), BRET receptor activation; cells co-expressing FP-Gγ2: 0.7 nM
  EC50 (GLP-1), BRET receptor activation; cells co-expressing FP-Gγ3: 0.3 nM
  EC50 (GLP-1), BRET receptor activation; cells co-expressing FP-Gγ4: 1.1 nM
  EC50 (GLP-1), BRET receptor activation; cells co-expressing FP-Gγ5: 0.1 nM
  EC50 (GLP-1), BRET receptor activation; cells co-expressing FP-Gγ7: 0.4 nM
  EC50 (GLP-1), BRET receptor activation; cells co-expressing FP-Gγ8: 1.4 nM
  EC50 (GLP-1), BRET receptor activation; cells co-expressing FP-Gγ9: 0.4 nM
  EC50 (GLP-1), BRET receptor activation; cells co-expressing FP-Gγ10: 0.3 nM
  EC50 (GLP-1), BRET receptor activation; cells co-expressing FP-Gγ11: 0.7 nM
  EC50 (GLP-1), BRET receptor activation; cells co-expressing FP-Gγ12: 0.3 nM
  EC50 (GLP-1), BRET receptor activation; cells co-expressing FP-Gγ13: 0.4 nM
  EC50 (GLP-1), BRET receptor activation; cells co-expressing Gγ1-FP: 1.1 nM
  EC50 (GLP-1), BRET receptor activation; cells co-expressing Gγ2-FP: 3 nM
  EC50 (GLP-1), BRET receptor activation; cells co-expressing Gγ3-FP: 1.5 nM
  EC50 (GLP-1), BRET receptor activation; cells co-expressing Gγ4-FP: 4.3 nM
  EC50 (GLP-1), BRET receptor activation; cells co-expressing Gγ7-FP: 5.2 nM
  EC50 (GLP-1), BRET receptor activation; cells co-expressing Gγ8-FP: 2.3 nM
  EC50 (GLP-1), BRET receptor activation; cells co-expressing Gγ9-FP: 1.7 nM
  EC50 (GLP-1), BRET receptor activation; cells co-expressing Gγ10-FP: 9.2 nM
  EC50 (GLP-1), BRET receptor activation; cells co-expressing Gγ11-FP: 3.1 nM
  EC50 (GLP-1), BRET receptor activation; cells co-expressing Gγ12-FP: 3.1 nM
  EC50 (GLP-1), BRET receptor activation; cells co-expressing Gγ13-FP: 1 nM

## Gγ9-FP: fusion protein of human G-protein gamma9 and yellow fluorescent protein YPet, SEQ. ID. NOs. 5, 6
[4]
  HTS compat.: +
[5]
  HTS compat.: +

## calcitonin: ligand of a receptor endogenously expressed in HEK cells
Chimeric M4R (RGLG-2)
  activation of the chimeric M4R (BRET): lack of activation
[1]
  activation of endogenously expressed receptors, cAMP accumulation: activated; also recorded: increase in cAMP
Chimeric GIPR
  activation of the chimeric GIPR (BRET): lack of activation

B1: Bordetella pertussis toxin (protein)
chain: DDPPATVYRYDSRPPEDVFQNGFTAWGNNDNVLDHLTGRSCQVGSSNSAFVSTSSSRRYTEVYLEHRMQEAVEAERAGRGTGHFIGYIYEVRADNNFYGAASSYFEYVDTYGDNAGRILAGALATYQSEYLAHRRIPPENIRRVTRVYHNGITGETTTTEYSNARYVSQQTRANPNPYTSRRSVASIVGTLVRMAPVIGACMARQAESSEAMAAWSERAGEAMVLVYYESIAYSF
[6]
  BRET signal change in response to acetylcholine after overnight incubation with PTX: shows no effect on the BRET signal changes obtained in response to Ach
[7]
  BRET signal change in response to acetylcholine after overnight incubation with 100 ng/ml PTX: PTX effectively blocks the BRET signal changes compared to the non-PTX treated condition
[8]
  BRET signal change in response to acetylcholine after overnight incubation with PTX: The Gαo-inhibiting effects of PTX are rescued by the C351S substitution

— patent US20130035256A1, “Chimeric Polypeptides Useful in Proximal and Dynamic High-Throughput Screening Methods” (ADDEX PHARMA SA, priority 2010, published 2013)
